These results are taken from patent US20220169740A1 (KINDRED BIOSCIENCES, published 2022).

Assay [1] has as its target T1, human NGF (Sino Biological, Inc.; Catalog No. 11050-HNAC) (human, UniProt P01138 122-241, limits assumed, biotinylated in the Octet assay of Example 3 (sites not given); not biotinylated in the TF1 assay). In words: cell-based or functional assay.
Assay [2] deals with T1, human NGF (Sino Biological, Inc.; …). In words: BLI (Octet); biotinylated human NGF on streptavidin tips, TrkA-Fc 25 ug/mL; 1:1 fit. As to the method:
Binding activity of canine, feline, and equine TrkA ECD v2 and v3 fusion polypeptides prepared in Example 2 (SEQ ID NOs: 16, 17, 19, 20, 22, and 23) to commercially-available human NGF was considered. The binding analysis was performed using a biosensor Octet as follows. Briefly, human NGF (Sino Biological, Inc.; Catalog No. 11050-HNAC) was biotinylated. The free unreacted biotin was removed from biotinylated NGF by extensive dialysis. Biotinylated NGF was captured on streptavidin sensor tips. The association of NGF with TrkA-Fc (25 ug/mL) was monitored for 600 seconds. Dissociation was monitored for 600 seconds. A buffer only blank curve was subtracted to correct for any drift. The data were fit to a 1:1 binding model using ForteBio™ data analysis software to determine the kₒₙ, koff, and the Kd. The buffer for dilutions and all binding steps was: 20 mM phosphate, 150 mM NaCl, pH 7.2.
FIG. 1 and FIG. 2 are sensorgrams showing that canine, feline, and equine TrkA ECD v2 and v3 fusion polypeptides all bind NGF. […] Irrelevant canine and feline IgG-Fc fusion proteins were used as a negative control.
On the technique in general: Biolayer interferometry detects binding as a change in optical thickness at a sensor tip.

T1 sequence (P01138 122-241 limits assumed): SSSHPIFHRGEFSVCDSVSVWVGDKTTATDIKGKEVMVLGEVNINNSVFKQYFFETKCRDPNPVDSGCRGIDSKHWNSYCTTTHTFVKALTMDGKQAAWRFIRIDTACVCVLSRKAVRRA

B1: Equine TrkA ECD v2-variant equine IgG2 Fc (Protein A+, C1q-, CD16-) (Fc fusion)
chain: VSFPASVHLQTAVEQHHWCIPFSVDGQPAPTLRWLFNGSVLNETSFIFTEFLESAANETMRHGCLRLNQPTHVNNGNYTLLATNPYGQDSASVMVAFMDNPFEFNPEDPIPVSFSPVDTNSTSRDPPCVLSAEGVIPIPSVPKPQCPPYTHSKFLGGPSVFIFPPNPKDTLMISRTPVVTCVVVNLSDQYPDVQFSWYVDNTEVHSAITKQREAQFNSTYRVVSVLPIQHQDWLSGKEFKCSVTNVGVPQPISRAISRGKGPSRVPQVYVLPPHPDELAKSKVSVTCLVKDFYPPDISVEWQSNRWPELEGKYSTTPAQLDGDGSYFLYSKLSLETSRWQQVESFTCAVMHEALHNHYTKTDISESLGK
notes: CHO; also called equine TrkA ECD v2 fusion polypeptide; equine TrkA v2
In the case of B1, the “IC50, TF1 cell proliferation assay (CellTiter-Glo luminescence; NGF at 10 ng/ml)” value in assay [1] is 5.4 nM. Moreover, the Kd (in general, the constant that tells how readily two partners part at equilibrium) in assay [2] was roughly 1 nM.
